Assay: soluble fraction after stress (log2 fold change); higher = more stays soluble; pooled small domains, quantitative proteomics
Conditions: stress: pH 4
In short: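 Aggregation propensity here comes from the fold change in the soluble amount of each small protein domain after acid stress, measured in pooled custom libraries by high-throughput quantitative proteomics. The acid stress was pH 4. On the log2 scale, higher values mean more of the domain stayed soluble.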

Row | Sequence | soluble fraction (log2)
1 | HMKKYIEIYNYYKQLIESEQLKSGDKMPSVRKATKIFNVSKTTVQNAYFDLQADGYIIAAPKSGYYVTEM | -0.7
2 | HMKKYLNIYNIIVNKIESKEYQSNDKLPSEKELMDQYNVSRDTVRKSLNMLEQNGYIQKTKGKGSFVLDIN | 0.409
3 | HMKLEEITIIVPSLRLDNFVSDLARTSRSKAVQIIDSERVFINGQNETKASKQVKLGDVITSA | -0.767
4 | HMKLHPRDQERTRAISARGERLYAVTVGDLRRRIGEMLEWFGRQIESQEPMRVAKAARRITDFFDQVEAFT | -2.15
5 | HMKLIRLGKAAGELNVGMSTLAEFLQSKGHSVDPNPNTKLTPEQYALLRMEFAADQTLKKLTKQP | -0.117
6 | HMKLKHANGNHPLTQQEKQNMIEEAAKHYGDYMTALGFDWKQDPNSSDTPMRVAKAFVNDLAEGVY | -0.348
7 | HMKLLLSANISKLRKKYSMTQEQLAEALGVTFASVSKWERGVATPELKLIAEMADMFEVSIDALIGYEFRN | -1.41
8 | HMKLPIEKESYRIIWDLEEESFRIRLKISENSPQEEKNILINQAIEDIENITGEPIDKSPYYVLYE | -1.04
9 | HMKLPNSFGSIQKLSGNRRKPYRVVKTIGWDENGKQIRKTLGYYETRAKALQELALFNEKPYD | 0.22
10 | HMKLTALWTANPKISAPIYSEPSTQSKTLGRIYQGASVKVYSFDPEWAYINSSGVVGYVLRRHLE | 0.326
11 | HMKLTINIDAAHDGKTIKQLFAEKGYSLELIKKFKYDGAIEVNGERKTVRWVLREGDLLVLEAN | -0.683
12 | HMKLTNIQYETLKVVVESRAKIDEEEGITIKLEDIKKYIDQAISFTGLVGDDEDYKKLFADMEYRFKIQ | -0.925
13 | HMKLVAAGYHQNRLLVLLGIQAEELQAKRLLASFDRFRGREATPKPPIHDSARRWLRDTYHHVMNQVPVEL | -0.432
14 | HMKMHKIIKERRLALNFTQEQVAKYLGVTTPAVNKWEKGISYPDISLLPALARLLDTDLNTLLSF | -1.26
15 | HMKMLPAEVLTHPAVVALIERGAPTGSITPEEVRQASEDAAVEPRHLKALLAHLSALGISVQIP | -0.266
16 | HMKMLSIQRREAIRALLLEKESITIAEVMEKFQISVETARRDFDALADEGFLNKVYGGATLKK | -1.24
17 | HMKMPNGYGSITKLSGKRRKPWRVRKTAGWELDAKTQKLKQTYINIGYYETRADAMSALVSYNEDP | -0.151
18 | HMKMQPVISQGVLYINNVTDVRTIEVFDISGRIVADAAASTTVNIAHLNEGPYIVKVTTVNGIESIKILNK | -0.889
19 | HMKNAMTDIYLEEIKKILTKNEFLVYTLRELNNFSVQFITDNYDLSEKTIYNSVYRAKKKIDRHFT | -0.696
20 | HMKNDKLLIFMELKGISRTQLSKSTGIPASTLGRIINGDVQKIKAVYMEAIANALDTSIHTIFDV | -0.352
21 | HMKNDNIHMMASKINGIALEVGVLTPGMHPKNDLSEGEVGYIVTNLKTTREAKVGDTVTLAKKPAATPLPG | 0.187
22 | HMKNETFAITSEDAGKRLDVWLTNILGDYSRSYVERLVEQGNVTVGGKTVKAGYKLKAGDSVQVSIPGPK | 0.0982
23 | HMKNISSEEDREKALSLGITQEFIDNKGRYFITVPNKPSNFKEQALNIQKEISEQIDTVINKRFEF | -0.263
24 | HMKNLDILTPKEIEVLNLVAKGYSNSKISKELDIAEVTVKKHIGSMFQKLDVKDRLSLALIL | -0.52
25 | HMKNLKPSTEVILKELVKRYPDQTEFRKQQIVDVGQSFGYKGKDYGPIFDADNRVKIGTYDLAGLIVPLQR | 0.0835
26 | HMKNLNVIDLSALRTLELKESSDWTLIQKRFKLLVKKYHPDMNAGSKQYEEKLKKITLAYTHLKKLF | -0.715
27 | HMKNQQLFNIGDRFQVDGVAYRMEKLFPENGTVEVYNLGVGRHKTMSFEEILALWNSGKLLFEI | -0.945
28 | HMKNSIKLDNFVGMSYDEVISNKEYDFNFVSAFEKTSDYEAGTIIGQTPAAEERVMVGTTVTLTVAQP | 0.158
29 | HMKNTADRVYENLFHMLVSGDYAPGDRIPSEHELKERFNVSRNTIRAALNRMNALGIIETRQGDGTYLKG | -0.147
30 | HMKNTFGLTEREMEVLALIVDGLSNPEIAEKLFITRATAKAHVHSILQKLYVDDRTQAAVTAMREGL | -1.14

From the domain aggregation screens of Martell et al. (2025)
